{
  "source": "paper PMC9780748",
  "assay_in_all_cases": "potentiometry",
  "key": {"[1]": {"target": "Lys79 (UniProt position 79, …)", "settings": "298 K, 0.1 M NaClO4, none (HClO4/KOH)"}, "[2]": {"target": "Arg76 (UniProt position 76, …)", "settings": "298 K, 0.1 M NaClO4, none (HClO4/KOH)"}, "[3]": {"target": "Tyr189 (UniProt position 189, …)", "settings": "298 K, 0.04 M sodium dodecyl sulfate (no other salt stated), none (HClO4/KOH)"}, "[4]": {"target": "Arg187 (UniProt position 187, …)", "settings": "298 K; 0.04 M sodium dodecyl sulfate (no other salt stated); none (HClO4/KOH); free peptide (0.5 mM) in SDS, no metal"}, "[5]": {"target": "Glu303 (UniProt position 303, …)", "settings": "298 K; 0.1 M NaClO4; none (HClO4/KOH); free peptide (0.5 mM), no metal"}, "[6]": {"target": "Cterm310 (UniProt position 310, GQLHCT-----)", "settings": "298 K; 0.1 M NaClO4; none (HClO4/KOH); free peptide (0.5 mM), no metal"}, "[7]": {"settings": "Ni(II) complex, metal:peptide 1:1, 0.5 mM peptide"}, "[8]": {"settings": "Zn(II) complex, metal:peptide 1:1, 0.5 mM peptide"}, "[9]": {"settings": "free peptide (0.5 mM), no metal"}, "[10]": {"settings": "free peptide (0.5 mM) in SDS, no metal"}},
  "data": [
    {"protein": "ARHAKAH", "note": "[Aspf2 (Asp f 2 zincophore) fragment 75-81, Ac-ARHAKAH-NH2 (Aspergillus fumigatus)]", "values": [
      {"measurement": "pKa", "setting": "[1]; [7]", "result": 9.87},
      {"measurement": "pKa", "setting": "[1]; [8]", "result": 9.75},
      {"measurement": "pKa", "setting": "[1]; [9]", "result": 9.79},
      {"measurement": "pKa", "setting": "[2]; [7]", "result": 11.38},
      {"measurement": "pKa", "setting": "[2]; [8]", "result": 11.79},
      {"measurement": "pKa", "setting": "[2]; [9]", "result": 11.14}
    ]},
    {"protein": "MHRLYHVP", "note": "[Aspf2 (Asp f 2 zincophore) fragment 185-192, Ac-MHRLYHVP-NH2 (Aspergillus fumigatus)]", "values": [
      {"measurement": "pKa", "setting": "[3]; [10]", "result": 9.56},
      {"measurement": "pKa", "setting": "[4]", "result": 11.21}
    ]},
    {"protein": "MHRLYHVPAVGQGWVDHFAD", "note": "[Aspf2 (Asp f 2 zincophore) fragment 185-204, Ac-MHRLYHVPAVGQGWVDHFAD-NH2 (Aspergillus fumigatus)]", "values": [
      {"measurement": "pKa", "setting": "[3]; Zn(II) complex, metal:peptide 1:1, 0.5 mM peptide, in SDS", "result": 9.56},
      {"measurement": "pKa", "setting": "[3]; [10]", "result": 10.12},
      {"measurement": "pKa", "setting": "[4]", "result": 11.24}
    ]},
    {"protein": "PNCHTHEGGQLHCT", "note": "[Aspf2 (Asp f 2 zincophore) C-terminal fragment 297-310, Ac-PNCHTHEGGQLHCT (Aspergillus fumigatus)]", "values": [
      {"measurement": "pKa", "setting": "[5]", "result": 4.24},
      {"measurement": "pKa", "setting": "[6]", "result": 3.08}
    ]}
  ]
}
